Source: article PMC4260750

Biological target: ADAM10 (endogenous, rat brain) (UniProt Q10743)
Assay: GST pull-down from rat brain homogenate
Conditions: reference: GST-SAP97wt, PKC-treated; sites T629

binding against the reference: weaker
Substance: SAP97 (GST-SAP97 and YFP-SAP97 constructs) (from UniProt Q62696) GST-SAP97-T629A, PKC-treated
